# Assay results: the supplement of paper PMC7125110
# ± gives the standard error. Variants at the floor of the assay were thinned out.
# B1: glmS ribozyme (parent)
# chain: AUAAAAGCGCCAGAACUACAGAAAUGUAGUUGACGAGGAGGAGGUUUAUCGAAUUUUCGGCGGAUGCCUCCAAA
# Columns and labels:
# Settings in all cases: with glucosamine-6-phosphate
# [1] = variants of: B1; assay: self-cleavage kobs at 40 uM GlcN6P; higher = faster cleavage; RNA array
# How it was run: (§1)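 Tracking of barcoded ribozyme variants used a hybridised Cy3 probe at 37 °C, after in situ transcription by E. coli RNA polymerase on sequenced MiSeq chips. The flowed solution held 40 μM to 10 mM glucosamine-6-phosphate in HEPES/KCl/Mg(OAc)2 buffer, and imaging ran over ~14 h. kobs was taken from exponential decay fits of normalised per-tile medians, and kcat and KM from weighted Michaelis–Menten fits.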
# [2] = variants of: B1; assay: self-cleavage kobs at 160 uM GlcN6P; higher = faster cleavage; RNA array
# How it was run: as §1
# [3] = variants of: B1; assay: self-cleavage kobs at 640 uM GlcN6P; higher = faster cleavage; RNA array
# How it was run: as §1
# [4] = variants of: B1; assay: self-cleavage kobs at 2500 uM GlcN6P; higher = faster cleavage; RNA array
# How it was run: as §1
# [5] = variants of: B1; assay: self-cleavage kobs at 10000 uM GlcN6P; higher = faster cleavage; RNA array
# How it was run: as §1
Variant,self-cleavage kobs at 40 uM GlcN6P [1] [s⁻¹],self-cleavage kobs at 160 uM GlcN6P [2] [s⁻¹],self-cleavage kobs at 640 uM GlcN6P [3] [s⁻¹],self-cleavage kobs at 2500 uM GlcN6P [4] [s⁻¹],self-cleavage kobs at 10000 uM GlcN6P [5] [s⁻¹]
C58A G63U,< 1e-05,< 1e-05,< 1e-05,< 1e-05,
A42C U65G C70G C71G,< 1e-05,,,,
A14C G35U G43C,< 1e-05,,,,
A12C C34G G40U A52U C61U,< 1e-05,,,,< 1e-05
U54A C68G C70U,8.05e-05 ± 2.2e-05,,,,
C34G G40U G63C C68U,< 1e-05,,,,< 1e-05
C34G A39U,< 1e-05,,< 1e-05,< 1e-05,< 1e-05
C16A U31A U47C G63A,< 1e-05,,,,
A33G A42U,< 1e-05,< 1e-05,< 1e-05,< 1e-05,< 1e-05
G7A A36C U54G,< 1e-05,,,,< 1e-05
A48U G66C,< 1e-05,< 1e-05,,,
A14G U30G,0.001 ± 0.00014,0.00212 ± 0.00046,0.00706 ± 0.0011,0.0179 ± 0.0054,0.0807 ± 0.027
G13C G35A A39G A53C U56C G63C,< 1e-05,,< 1e-05,< 1e-05,< 1e-05
C11A G41C,< 1e-05,< 1e-05,< 1e-05,< 1e-05,
G60A U65C,< 1e-05,< 1e-05,,< 1e-05,< 1e-05
U57G G60U,< 1e-05,< 1e-05,< 1e-05,< 1e-05,
C10G G13A U47G,< 1e-05,,,,
C16U U55A,0.000949 ± 0.00012,0.00192 ± 0.00041,0.00568 ± 0.0014,0.0131 ± 0.0022,0.0419 ± 0.0089
A42U G59U,< 1e-05,< 1e-05,< 1e-05,,< 1e-05
C16A A42C G66U,< 1e-05,,,,< 1e-05
G44C C50A U55A C70U,< 1e-05,,,,
U54C U55G,0.00056 ± 0.00017,0.000955 ± 0.00031,0.00482 ± 0.0012,0.00712 ± 0.0021,0.0366 ± 0.018
G41U G43C,< 1e-05,< 1e-05,< 1e-05,< 1e-05,
C10G G63A,< 1e-05,,,,< 1e-05
G7C A52C,< 1e-05,< 1e-05,< 1e-05,< 1e-05,

Variant,self-cleavage kobs at 40 uM GlcN6P [1] [s⁻¹],self-cleavage kobs at 160 uM GlcN6P [2] [s⁻¹],self-cleavage kobs at 640 uM GlcN6P [3] [s⁻¹],self-cleavage kobs at 2500 uM GlcN6P [4] [s⁻¹],self-cleavage kobs at 10000 uM GlcN6P [5] [s⁻¹]
G59C G66U,< 1e-05,< 1e-05,< 1e-05,,< 1e-05
G43C G59U,< 1e-05,< 1e-05,< 1e-05,< 1e-05,< 1e-05
G13U U45C,< 1e-05,< 1e-05,,,6.21e-05 ± 1.4e-05
G37A A48G,< 1e-05,< 1e-05,,,
G9C G66U,< 1e-05,< 1e-05,< 1e-05,< 1e-05,< 1e-05
G9A C10G G32U A48G,< 1e-05,,,,
A12U C16A A53U,6.29e-05 ± 1.7e-05,,0.000278 ± 8.9e-05,0.00138 ± 0.00059,
C11G C16A U69G,6.17e-05 ± 2.3e-05,,,,5.6e-05 ± 1.7e-05
G7U U69G,0.000114 ± 2.1e-05,,0.000299 ± 7e-05,6.87e-05 ± 1.8e-05,0.000226 ± 8.9e-05
A36U G43A U56A,< 1e-05,,< 1e-05,,< 1e-05
A12C A36G,< 1e-05,< 1e-05,< 1e-05,< 1e-05,< 1e-05
G9C C11G G37A G38A U54C A64G,< 1e-05,,,,
A6U A36C C50U A64G,< 1e-05,,,,
G40U A42U C61A,< 1e-05,,,,< 1e-05
A15G G44U C68G,< 1e-05,,,,
C10U G37C G66A,< 1e-05,,,,
A12U G13C A15C C34G,< 1e-05,,< 1e-05,< 1e-05,< 1e-05
A15U G32A A42C U54C U56G G63A,< 1e-05,,,,
A33C G44A C71A,< 1e-05,,,,< 1e-05
C16U U55A C67A,0.000154 ± 5.7e-05,,,,0.00183 ± 0.00074
G35C G41U,< 1e-05,< 1e-05,< 1e-05,< 1e-05,< 1e-05
C11U G41U A64U,< 1e-05,< 1e-05,,< 1e-05,< 1e-05
U31C G38A U46G,< 1e-05,,,,
C10A U30C C61A,< 1e-05,,,,
G9A A52U U65G,< 1e-05,,,,

Variant,self-cleavage kobs at 40 uM GlcN6P [1] [s⁻¹],self-cleavage kobs at 160 uM GlcN6P [2] [s⁻¹],self-cleavage kobs at 640 uM GlcN6P [3] [s⁻¹],self-cleavage kobs at 2500 uM GlcN6P [4] [s⁻¹],self-cleavage kobs at 10000 uM GlcN6P [5] [s⁻¹]
U69C C71A,5.28e-05 ± 2.1e-05,0.000113 ± 1.9e-05,0.000587 ± 8.4e-05,0.000478 ± 9.3e-05,
G40U G44A U57C C61G G66U,< 1e-05,,,< 1e-05,
G9C G63A,< 1e-05,,< 1e-05,,
C8G U54A C67A,< 1e-05,,,,
A6U U49G,< 1e-05,< 1e-05,< 1e-05,< 1e-05,
G13U U57G,< 1e-05,,,,
C11G U30G A36C A64U U65C,< 1e-05,< 1e-05,< 1e-05,< 1e-05,< 1e-05
A6C G35U A36G G63U,< 1e-05,,,,
U54A G66A C67G,5.57e-05 ± 1.5e-05,,,0.000119 ± 4.7e-05,0.000693 ± 0.00017
A33C U45C,< 1e-05,,,,4.65e-05 ± 1.3e-05
G44A A52U,< 1e-05,< 1e-05,< 1e-05,,
C10A C11G G60U C61G,< 1e-05,,,,< 1e-05
A48C G59U,< 1e-05,< 1e-05,< 1e-05,< 1e-05,< 1e-05
G44A A48U U69G,< 1e-05,,,< 1e-05,
U30G U45A A64C,< 1e-05,,,,7e-05 ± 1.7e-05
U31C G44U U56C,< 1e-05,,,,
A14C U49A,< 1e-05,,< 1e-05,,< 1e-05
A14U C50U G59C C70U,< 1e-05,,,,
C11G C58G,< 1e-05,< 1e-05,< 1e-05,,< 1e-05
A6U G62C,< 1e-05,,< 1e-05,< 1e-05,
G43U A52U,< 1e-05,< 1e-05,,,
U56A C71U,0.000282 ± 3.8e-05,0.000738 ± 0.00012,0.00243 ± 0.00036,0.0201 ± 0.0072,0.018 ± 0.0044
A36U A48U G51U U65G,< 1e-05,,,,
G38U A53G,< 1e-05,< 1e-05,< 1e-05,,
G44A A48C,< 1e-05,< 1e-05,< 1e-05,< 1e-05,

Variant,self-cleavage kobs at 40 uM GlcN6P [1] [s⁻¹],self-cleavage kobs at 160 uM GlcN6P [2] [s⁻¹],self-cleavage kobs at 640 uM GlcN6P [3] [s⁻¹],self-cleavage kobs at 2500 uM GlcN6P [4] [s⁻¹],self-cleavage kobs at 10000 uM GlcN6P [5] [s⁻¹]
A15G G60C,< 1e-05,,,,
C11U A14C G38A C61G,< 1e-05,,,,
A33U G43U C50G G51U,< 1e-05,,,,
A15G U31A A36U,< 1e-05,,,,
C11A G37C G60A,< 1e-05,,,,
G9C A36U,< 1e-05,,< 1e-05,< 1e-05,
G60U G62C A64C,< 1e-05,,< 1e-05,,
G38U U46C,< 1e-05,,,< 1e-05,
U31A U45C A48U,< 1e-05,,< 1e-05,,
G9U G35C G66U,< 1e-05,,,,< 1e-05
A15C G38C A52G,< 1e-05,,,< 1e-05,
U30A G59A G60C C71A,< 1e-05,,,,< 1e-05
G35A G60A G66U C67U U69G,< 1e-05,,,< 1e-05,
C8A A15U G38A G41C A53G,< 1e-05,,,,
G7U G51C,< 1e-05,,< 1e-05,< 1e-05,
A14C C34G G40U,< 1e-05,,,< 1e-05,
G13C A64C,< 1e-05,< 1e-05,,< 1e-05,< 1e-05
U31A C71G,4.17e-05 ± 1e-05,0.000162 ± 3.4e-05,0.000196 ± 3.4e-05,0.000225 ± 4.8e-05,0.000728 ± 0.00011
G38A A42C,< 1e-05,,,,< 1e-05
G37C U56C,< 1e-05,,,,< 1e-05
G29U A39U,0.000106 ± 1e-05,0.000145 ± 2.1e-05,0.000784 ± 0.00013,0.00196 ± 0.00026,0.0042 ± 0.00041
U30C A42C,< 1e-05,< 1e-05,,< 1e-05,< 1e-05
C8G G62U,< 1e-05,< 1e-05,< 1e-05,< 1e-05,
